The source of these data is patent publication US20130225493A1 (HEPACORE, published 2013).

The target in experiment [1] is T1, FGFR4 extracellular domain, immobilized (R4-Fc) (UniProt P22455 22-369).
T1 construct: extracellular domain; also called FDCPR4-Fc
T1 sequence (looked up): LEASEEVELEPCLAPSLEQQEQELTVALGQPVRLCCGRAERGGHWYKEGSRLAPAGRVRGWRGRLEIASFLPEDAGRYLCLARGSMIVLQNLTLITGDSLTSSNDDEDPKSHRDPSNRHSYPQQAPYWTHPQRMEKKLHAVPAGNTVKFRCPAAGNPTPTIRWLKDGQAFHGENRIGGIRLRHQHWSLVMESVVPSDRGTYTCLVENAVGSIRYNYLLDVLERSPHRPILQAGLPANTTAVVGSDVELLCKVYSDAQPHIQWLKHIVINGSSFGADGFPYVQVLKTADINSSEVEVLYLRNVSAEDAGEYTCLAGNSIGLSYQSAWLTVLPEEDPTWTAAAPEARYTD
Description: functional ELISA on immobilized FGFR. For orientation: ELISA stands for enzyme-linked immunosorbent assay.

In experiment [2] the target is T1, FGFR4 extracellular domain, immobilized …. Description: ELISA: biotinylated ligand on immobilized FGFR-Fc, HRP-streptavidin. On the procedure:
FIGS. 2A-2D. […] (2A) FGFR1; (2B) FGFR2; (2C) FGFR3 and (2D) FGFR4. Biotinylated FGF-18 (♦) and three FGF-18 variants (Δ37, v1,; Δ45, v2, (▪); and Δ51, v3, (▪)) were added at increasing concentrations to FGFR1-4 anchored to a MaxiSorp ELISA plate. Bound ligands were detected by HRP-streptavidin. Data are the average of duplicate wells.
FGF-18 and the N-terminal truncated variants (FGF-18^Δ37, FGF-18^Δ45 and FGF-18^Δ51) were tested for receptor specificity by binding to immobilized extracellular domain of FGFR1-4 (FIG. 2). Biotinylated FGF's were added at increasing concentrations to FGFR1-4 anchored to a MaxiSorp ELISA plate. Bound ligands were detected by HRP-streptavidin. […] The variants of the present invention are thus shown to be specific for FGFR3-4.

B1: FGF-18^Δ31 (ligand)
chain: MDFRIHVENQTRARDDVSRKQLRLYQLYSRTSGKHIQVLGRRISARGEDGDKYAQLLVETDTFGSQVRIKGKETEFYLCMNRKGKLVGKPDGTSKECVFIEKVLENNYTALMSAKYSGWYVGFTKKGRPRKGPKTRENQQDVHFMKRYPKGQPELQKPFKYTTVTKRSRRIRPTHPA
modifications: biotinylation not stated for the functional ELISA of Table 4
notes: E. coli expressed
For the molecule B1, a half-maximal effect in experiment [1] (EC50) was put at 9.36 ng/mL.

B2: FGF-18^Δ51 (ligand)
chain: MLRLYQLYSRTSGKHIQVLGRRISARGEDGDKYAQLLVETDTFGSQVRIKGKETEFYLCMNRKGKLVGKPDGTSKECVFIEKVLENNYTALMSAKYSGWYVGFTKKGRPRKGPKTRENQQDVHFMKRYPKGQPELQKPFKYTTVTKRSRRIRPTHPA
modifications: biotinylated in the immobilized receptor assays (sites not given)
notes: E. coli expressed; Numbering includes the signal peptide (1-27); also called v3
Take B2: the EC50 (commonly the concentration needed to bring the measured effect to its halfway point) in experiment [2] amounted to 9.93 ng/mL; in experiment [1], 10.6 ng/mL.

B3: FGF-18^Δ45 (ligand)
chain: MDVSRKQLRLYQLYSRTSGKHIQVLGRRISARGEDGDKYAQLLVETDTFGSQVRIKGKETEFYLCMNRKGKLVGKPDGTSKECVFIEKVLENNYTALMSAKYSGWYVGFTKKGRPRKGPKTRENQQDVHFMKRYPKGQPELQKPFKYTTVTKRSRRIRPTHPA
modifications: biotinylated in the immobilized receptor assays (sites not given)
notes: E. coli expressed; Numbering includes the signal peptide (1-27); also called v2
In experiment [2], B3 returned an EC50 of 8.1 ng/mL.

B4: FGF-18^Δ33 (ligand)
chain: MRIHVENQTRARDDVSRKQLRLYQLYSRTSGKHIQVLGRRISARGEDGDKYAQLLVETDTFGSQVRIKGKETEFYLCMNRKGKLVGKPDGTSKECVFIEKVLENNYTALMSAKYSGWYVGFTKKGRPRKGPKTRENQQDVHFMKRYPKGQPELQKPFKYTTVTKRSRRIRPTHPA
modifications: biotinylation not stated for the functional ELISA of Table 4
notes: E. coli expressed; Numbering includes the signal peptide (1-27)
B4 gave an EC50 in experiment [1] of 7.11 ng/mL.

B5: FGF-18 (recombinant wild type, mature form without the signal peptide) (ligand)
chain: MENVDFRIHVENQTRARDDVSRKQLRLYQLYSRTSGKHIQVLGRRISARGEDGDKYAQLLVETDTFGSQVRIKGKETEFYLCMNRKGKLVGKPDGTSKECVFIEKVLENNYTALMSAKYSGWYVGFTKKGRPRKGPKTRENQQDVHFMKRYPKGQPELQKPFKYTTVTKRSRRIRPTHPA
modifications: biotinylated in the immobilized receptor assays (sites not given)
notes: Expressed in E. coli from pET9a and purified on heparin Sepharose; also called FGF-18 wild type; F18 w.t
For the molecule B5, the EC50 in experiment [2] was 9.23 ng/mL; in experiment [1] it was 10.2 ng/mL.

B6: FGF-18^Δ37 (ligand)
chain: MENQTRARDDVSRKQLRLYQLYSRTSGKHIQVLGRRISARGEDGDKYAQLLVETDTFGSQVRIKGKETEFYLCMNRKGKLVGKPDGTSKECVFIEKVLENNYTALMSAKYSGWYVGFTKKGRPRKGPKTRENQQDVHFMKRYPKGQPELQKPFKYTTVTKRSRRIRPTHPA
modifications: biotinylated in the immobilized receptor assays (sites not given)
notes: E. coli expressed; Numbering includes the signal peptide (1-27); also called v1
With B6, the values for the EC50 in experiment [2] and in experiment [1] were 5.86 ng/mL and 8.28 ng/mL, respectively.
